Experimental data taken from patent US20240360203A1 (GENERATE BIOMEDICINES, published 2024).
Like-named read-outs stand apart in the source and are kept apart here.

B1: AB-1 (antibody, V domains shown)
VH: EVQLVESGAEVKKPGESLKISCKGSGYTFTRYWIGWVRQMPGKGLEWMGIIYPGDSDVRYSPSFQGHVTISADKSISTAYLQWNSLKASDTAMYYCARLPQYCSKGVCYRWFDPWGQGTLVTVSS
VL: EIVLTQSPSSVSASVGDRVTITCRASQGISSWLAWYQQKPGKAPKLLIYAASSLQSGVPSRFSGSGSGTDFTLTISSLQPEDFATYYCQQGHSFPYTFGQGTNLEIK
B2: Reference Antibody (antibody, V domains shown)
VH: EVQLVESGAEVKKPGESLKISCKGSGYTFTRYWIGWVRQMPGKGLEWMGIIYPGDSDTRYSPSFQGHVTISADKSISTAYLQWNSLKASDTAMYYCARLPQYCSNGVCQRWFDPWGQGTLVTVSS
VL: EIVLTQSPSSVSASVGDRVTITCRASQGISSWLAWYQQKPGKAPKLLIYAASSLQSGVPSRFSGSGSGTDFTLTISSLQPEDFATYYCQQGNSFPYTFGQGTNLEIK

What was measured:
Test in all cases: cell-based or functional assay
[1] = molecular target: T1, SARS-CoV-2 BA.4/5 Spike on pseudovirus (SARS-CoV-2, UniProt P0DTC2 14-1273)
[2] = molecular target: T2, SARS-CoV-2 BA.2 Spike on pseudovirus (SARS-CoV-2, UniProt P0DTC2 14-1273)
[3] = molecular target: T3, SARS-CoV-2 Delta Spike on pseudovirus (SARS-CoV-2, UniProt P0DTC2 14-1273)
[4] = molecular target: T1, SARS-CoV-2 BA.4/5 Spike on pseudovirus; remark: listed apart in the source
[5] = molecular target: T2, SARS-CoV-2 BA.2 Spike on pseudovirus; remark: listed apart in the source
[6] = molecular target: T4, SARS-CoV-2 BA.1 Spike on pseudovirus (SARS-CoV-2, UniProt P0DTC2 14-1273)
[7] = molecular target: T5, SARS-CoV-2 BA.2.12.1 Spike on pseudovirus (SARS-CoV-2, UniProt P0DTC2 14-1273)
[8] = molecular target: T3, SARS-CoV-2 Delta Spike on pseudovirus; remark: listed apart in the source
[9] = molecular target: T1, SARS-CoV-2 BA.4/5 Spike on pseudovirus; remark: listed apart in the source
[10] = molecular target: T1, SARS-CoV-2 BA.4/5 Spike on pseudovirus; remark: listed apart in the source
[11] = molecular target: T2, SARS-CoV-2 BA.2 Spike on pseudovirus; remark: listed apart in the source
[12] = molecular target: T4, SARS-CoV-2 BA.1 Spike on pseudovirus; remark: listed apart in the source
[13] = molecular target: T5, SARS-CoV-2 BA.2.12.1 Spike on …; remark: listed apart in the source
[14] = molecular target: T3, SARS-CoV-2 Delta Spike on pseudovirus; remark: listed apart in the source
[15] = molecular target: T5, SARS-CoV-2 BA.2.12.1 Spike on …; remark: listed apart in the source

| Binder | IC50, pseudovirus neutralization [1] [µg/mL] | IC50, pseudovirus neutralization [2] [µg/mL] | IC50, pseudovirus neutralization [3] [µg/mL] | IC50, pseudovirus neutralization [4] [µg/mL] | IC50, pseudovirus neutralization [5] [µg/mL] | IC50, pseudovirus neutralization [6] [µg/mL] | IC50, pseudovirus neutralization [7] [µg/mL] | IC50, pseudovirus neutralization [8] [µg/mL] | IC50, pseudovirus neutralization [9] [µg/mL] | % neutralization at 4.5 µg/ml, pseudovirus [10] [%] | % neutralization at 4.5 µg/ml, pseudovirus [11] [%] | % neutralization at 4.5 µg/ml, pseudovirus [12] [%] | % neutralization at 4.5 µg/ml, pseudovirus [13] [%] | % neutralization at 4.5 µg/ml, pseudovirus [14] [%] | IC50, pseudovirus neutralization [15] [µg/mL] |
| --- | --- | --- | --- | --- | --- | --- | --- | --- | --- | --- | --- | --- | --- | --- | --- |
| B1 | 0.075 | 0.031 | 0.034 | 0.0278 | 0.0219 | 0.0088 | 0.0133 | 0.0139 | 0.0101 | 90.4 | 89.9 | 96.5 | 89.2 | 99.5 |  |
| B2 | 0.634 | 1.25 | 0.256 | 0.0314 | 0.0941 | 0.0261 | 0.0307 | 0.0681 |  | 74.4 | 74.5 | 91.9 |  | 93.9 | 0.337 |
